Data published in the nanobody polyreactivity screen of Harvey et al. (2022).

Assay: yeast display, Sf9 membrane polyspecificity reagent, FACS + sequencing; frameworks hold sequencing errors
How it was run: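 Galactose-induced (36–48 hours) yeast carrying a synthetic nanobody display library were exposed to 10% biotinylated, detergent-solubilized Sf9 membrane reagent at 4 °C for 1 hour. FACS followed streptavidin microbead enrichment, using low and high (top ~1%) gates for expression (anti-HA) and reagent binding (streptavidin). Colony PCR, MiSeq 2 × 250 sequencing and CDR-length filtering followed. Labels for polyreactivity reflect the gate of origin.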

Sequence	polyreactivity (PSR sort gate)
QVQLVESGGGLVQAGGSLRLSCAASGFIFNRYAMGWYRQAPGKERELVADITGGSTYYADSVKGRFTISRDNAKNTVYLQMNSQKPEDTEVYYCAADRYGFYLESDYWGQGTQVTVSS	low polyreactivity
QVQLVESGGGLVQAGGSLRLSCAASGSIFKYYAMGWYRQAPGKERELVAAISSSGGSTYYADSVKGRFTISRDYAKYTVYCQMNSLKPQDTAVYYCNTPYIWKNYDYWGQGSQVTVSS	high polyreactivity
QVQLVESGGGLVQAGGSLRLICAASGFIFITNAMGWSRQAPGKERELVAAITSSDGNTYYADSVKGRFTISRDNAKNTVYLQMNSLKPEDTAVYYCADDARTKSYVRLYDYWGQGTQVTVSS	low polyreactivity
QVQLVESGGGLVQAGGILRLSCSASGYISKVYVMGWYRQAPGKERELVAAITNGGRTNYADSVKGRFTISRDNAKNTVYLQMNSLKPEDTAVYYCAARPRWHIRYNYWGQGTQVTVSS	high polyreactivity
QVQLVESGGGLVQAGGSLRLSCAASGSIFGYYAMGWYRQAPGKERELVARISYSGGTTYYADSVKGRFTISRDNAKNTVYLQMNSLKPEDTAVYYCNARIPYSWRYGYWGQGTQVTVSS	high polyreactivity
QVHLVESGGGLFQAGGSLRLSCAASGGIFSIYAMGWYRQAPGKERELVAAISTSGGSTYYADSLKGRFTISRDNAKNSVYLQMNSLKPEDTAVYYCNARRGFYWSWRGRYISGDYWGQGTQVTVSS	high polyreactivity
QVQLVESGGGLVQAGGSLRLSCADSGNIFGTYAMGWSRQAPGKERELVANISNDDRTNYADSVKGRFTISRDNAKNTVYLQMNSLKPEDTAVYYCAVEYPSIAYRKSSKTFDYWGQGTQVTVSS	low polyreactivity
QVQLVESGGGLVQAGGSLRLSCAASGYIFAYYAMGWYRQAPGKERELVATIRSGGSTNYADSVKGRFTISRDNAKNTGYLQMNILKPEDTAVYYCARDDATACDYWGQGSQVTVSS	low polyreactivity
QVQLVESGEGLVQAGGSLRLSCAASRRIFEYYFMGWYSQAPGKERELVAAMNRRGTSTYYADSVKGRFTISRDNAKNTVYLQMNSLKPEDTAVYYCAAVDRDYARTTTYDYWGQGTEVTVSS	high polyreactivity
QVQLVESGGGLVQAGGSLRLSCAASGITFYTYAMGWYRQAPGKERELDAAITCSGGRTYYADSVKGRFTISRDNAKNSVYLQMNSLKPEDTAVYYCAALYVYRPRTPYGYWGQGTQVNVSS	high polyreactivity
QVQLVESGGGLVQAGGSLRLSCAASGITFKYYTMGWYRQAPGKERELVAAISRGGSTNYADSVKGRFTISRDNAKNTVYLQMNSLKPEDTAVYYCAVDVPEFWWYRVIYDGYYWGQGTQVTVSS	high polyreactivity
QIQLVESVGGLVQAGGSLRLSCAASGSIFQYYAMGWYRQAPGKERELVAAISSGGSTYYADSVKGRFTISRENAKNTVYLQMNSLKPEDTAVYYCAADLQSGYTIPTSIVEYHPFDYWGQGTQGTVSS	low polyreactivity
QVQLVESGGGLVQAGGILRLSCAASGFIFVDYSMGWYREAPAKESQLVAAISGRDGSTYYADSVKGRFTISRDNAKNTVYLQMNSLKPEDTAVYYCAADRIHSGTLYDYDYWGQGTQVTESS	low polyreactivity
QVQLVESGGGLVQAGGSLRLSCAASGFIFGTYAMGWYRQAPGKERELVAAISVGGGSTYYADSVKGRFTISRDNAKNSVYLQMNSLKPEDTAVYYCNALYNDHFSWFSFGYWGQGTQVTVSS	low polyreactivity
QVQLVESGGGLVQAGGSLRLSCAASGSIFYYNAMGWYRQAPGKEREFVAAITISGGDTYYADSVKGRFTISRDNAKNTVYLQMNSLKPEDTAVYYCAAESYRGYDYWGQGTQVTVSS	high polyreactivity
QVQLVESGGGLVQAGGSLRLSCAASGGIFASNAMGWYRQAPGKERELVATITRGGSTNYADSVKGRFTISRDNAKNTVYLQMNSLKPEDTAVYYCAARFYSRAFWTAYYYWGQGTQVTVSS	high polyreactivity

Sequence	polyreactivity (PSR sort gate)
QVQLVESGGGLVQAGGSLRLSCAPSGRIFTGYAMGWYRPEPGQEWELVAASTSSGGSTYYADSVKGRVTISRDYAKNTVYLQMNSLKPEDTAVYYCNKVGRPRYNYWGQGTEVTVSS	high polyreactivity
QVQLVESGGGLLQAGVSLRLSCAASGRIYSKYAMGRYRQAPGKERELVAAITYSGGSTYYADSVKGRFTISRDNAKNTVYLQMNSLKPEDSAVYYCAAVHCTSYSKWFGYWGQGTQVSVSS	low polyreactivity
QVQIVESGGGLVQAGGRLRLSCAASGGIFKTYPMGWYRQAPGKERELVARINSRGGRTYYADSVKGRFTISRDYAKKTVYLQMNSLKPEATAVYYCAVRNPRYFNEYDYWGQGTQVTVSS	low polyreactivity
QVQLQESGGGLVQAGGSQRLTCAASVYIFYFQYMGWYRQAPGKEREFVAAMSDGANTNYADSVKGRFTISRDNAKNTESLQMNSLKPEDTAGYYCAVYADENYYYIYGGQGTQVTVSS	low polyreactivity
QVQLVESGGGLVQAGGSLRLSCAASGNIFDPYAMGWYIQAPGKERELVAVINASGDSTYYADSVKGRFTISRDNAKNTVYLQMNSLKPEDTAVYYCAADHRGEYDYWGQGTQVTVSS	low polyreactivity
QVQLVESGGGLVQAGGSLRLSCAASGRTFSLNTMGWYRQAPGTERELVATISYSGDRTYYADSVKGRFTISRDNAKNTVYLQMNSLKPEETAVYYCAAQYWGRSYAGRYDYWGQGTQVTVSS	high polyreactivity
QVQLVESGGGLVQAGGSLRLSCAASGITFIYYAMGWYRQAPGKEREFVAAITFRDGDTYYADSVKGRFTISRDNAKNTVYLQMNSLKPEDTAVYYCADTYWVYYYYPGYDYWGQGTQVTVSS	low polyreactivity
QVQLVESGGGLVQAGGSLRLSCAASGSIFTSYAIGWYRQAPGKERELVAGIDWSGGGTYYADSVKGRFTISRDNAKNTVYLQMNSLKPEDTAVYYCNADGPYTRYGPVDYWGQGTQVTVSS	low polyreactivity
QVQLVESGGGLVQAGGSLRLICAASGLTFWYYAMGWYRQAPGKERELVARITRSGVGTYYADSVKGRFTISRDNAKHTVYLQMNSLKPEDTAVYYCNARYQYSWVRYGYDYWGQGTQVTVSS	high polyreactivity
QVQLVESGGGLVQAGGSLRLTCAASGYTFGHYAMGWYRQAPGKERELVAVITSGGSTNYADSVKGRFTISRDNAKNTVYLQMNSLKPEDTAVYYCAADLYFYYVWIRDYWGQGTQVTVSS	low polyreactivity
QVQLVESGGGLVQAGGSLRLSCAASGFSFKRYAMGWYRQAPGKERELVADITRGGRTNYADSVKGRFTISRDNAKNTVYLQINSLKPEDTAVYYCNAVRQKYRFEYDYWGQGTQVTVSS	high polyreactivity
QVKLVESGGGLVQAGGSLRLSCAASGRTVTRNTMGWYRQAPGKERELVAAISRSGGGTYYADSVKGRFTISRDNAKNTVYLQMNSLKPEDTAVYYCAAVPQNYRNFDGYNYWGQGTQVTVSS	high polyreactivity
QVQLVESGGGLVQAGGSLRLSCAASGLTFVYNAMGWYRQAPGKERELVATISRGGSTYYADSVKGRFTISLDNAMNTVYLQMTSLKPEDTAVYYCNDDGYYDYDYGYWGQGTQVTVSS	low polyreactivity
QVQLVESGGGLVQAGGSLRLSCAASGSIFSYYAMGWYRQAPGKERELVAAITVRGGSTYYADSVKGRFTISRDNAKNTVYFQMNSLKPEDTAVYYCAADWLDESFSYGPYYYWGQGTQVTVSS	low polyreactivity
QVQLVESGGGLVQAGGSLRLSCAASGRTFVVYAMGWYRQAPGKERELVAVISFTGDSTFYADSVKGRFTISRDNSKNTVYLQMNSLKPEDTAVYYCAADFRRVFSKYSYYLYFDFDYWGQGTQVTVSS	low polyreactivity
